The experiment has as its target hMuSK-Fc (chimeric protein of the secretory human MuSK extracellular portion and human IgG1 Fc) (human) (UniProt O15146). Description: SPR (Biacore T200), Fc-tagged human MuSK on Protein G/A chip, 1:1 fit. A general note: SPR reads the build-up and loss of mass on a sensor chip optically.

Bridge positions count the residues as written; N and C are the ends. Square brackets hold non-standard residues; d marks the D form. Ends that are not written are not given here.

hMuSK-Fc (chimeric protein of the secretory human MuSK extracellular portion and human IgG1 Fc) (human), sequence (O15146 24-493, change not shown, form in doubt): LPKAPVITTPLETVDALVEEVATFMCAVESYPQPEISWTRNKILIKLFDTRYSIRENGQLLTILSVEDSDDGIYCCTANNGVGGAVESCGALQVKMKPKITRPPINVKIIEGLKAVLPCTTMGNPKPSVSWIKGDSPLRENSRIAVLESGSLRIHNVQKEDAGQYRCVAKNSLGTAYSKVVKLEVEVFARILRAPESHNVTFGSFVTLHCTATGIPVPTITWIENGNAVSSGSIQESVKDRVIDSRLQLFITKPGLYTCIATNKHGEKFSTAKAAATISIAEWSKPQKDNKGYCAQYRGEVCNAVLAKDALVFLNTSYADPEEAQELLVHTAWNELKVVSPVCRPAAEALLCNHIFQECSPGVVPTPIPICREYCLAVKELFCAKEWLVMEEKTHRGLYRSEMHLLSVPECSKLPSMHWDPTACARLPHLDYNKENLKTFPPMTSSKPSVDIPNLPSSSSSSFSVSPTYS

B1: Homodimer of MuSK7 with an introduced palmitoyl group (MuSK7-pal) (peptide)
peptide: {CH2CO}-[dY]PSYHTNVVASLKRC
modifications: thioether N-15; also: homodimer: two peptides condensed via C-terminal Cys carboxyl with linking unit bearing palmitic acid
What is called Kd is the concentration at which binding is half-saturated. A high value points to lower affinity. With B1, the Kd stood at 0.9 nM.

Source of the values: patent publication EP4722228A1, “NEW COMPOUND TARGETING MUSK AND USE THEREOF” (The University of Tokyo, priority 2023, dated 2024).
